B1: Torsin-1A (Homo sapiens), O14656 (parent)
chain: MKLGRAVLGLLLLAPSVVQAVEPISLGLALAGVLTGYIYPRLYCLFAECCGQKRSLSREALQKDLDDNLFGQHLAKKIILNAVFGFINNPKPKKPLTLSLHGWTGTGKNFVSKIIAENIYEGGLNSDYVHLFVATLHFPHASNITLYKDQLQLWIRGNVSACARSIFIFDEMDKMHAGLIDAIKPFLDYYDLVDGVSYQKAMFIFLSNAGAERITDVALDFWRSGKQREDIKLKDIEHALSVSVFNNKNSGFWHSSLIDRNLIDYFVPFLPLEYKHLKMCIRVEMQSRGYEIDEDIVSRVAEEMTFFPKEERVFSDKGCKTVFTKLDYYYDD
partner: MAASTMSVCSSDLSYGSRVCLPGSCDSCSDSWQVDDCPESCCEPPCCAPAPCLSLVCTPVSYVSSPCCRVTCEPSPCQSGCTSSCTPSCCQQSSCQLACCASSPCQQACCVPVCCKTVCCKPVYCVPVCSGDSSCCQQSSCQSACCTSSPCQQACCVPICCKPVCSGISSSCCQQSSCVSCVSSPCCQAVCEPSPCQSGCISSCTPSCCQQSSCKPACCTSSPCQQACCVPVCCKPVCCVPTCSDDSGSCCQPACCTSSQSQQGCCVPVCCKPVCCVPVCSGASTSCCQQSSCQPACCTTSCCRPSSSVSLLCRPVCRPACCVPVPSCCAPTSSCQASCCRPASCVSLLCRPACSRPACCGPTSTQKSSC
B2: Homeobox protein SIX1 (Homo sapiens), Q15475 (parent)
chain: MSMLPSFGFTQEQVACVCEVLQQGGNLERLGRFLWSLPACDHLHKNESVLKAKAVVAFHRGNFRELYKILESHQFSPHNHPKLQQLWLKAHYVEAEKLRGRPLGAVGKYRVRRKFPLPRTIWDGEETSYCFKEKSRGVLREWYAHNPYPSPREKRELAEATGLTTTQVSNWFKNRRQRDRAAEAKERENTENNNSSSNKQNQLSPLEGGKPLMSSSEEEFSPPQSPDQNSVLLLQGNMGHARSSNYSLPGLTASQPSHGLQTHQHQLQDSLLGPLTSSLVDLGS
partner: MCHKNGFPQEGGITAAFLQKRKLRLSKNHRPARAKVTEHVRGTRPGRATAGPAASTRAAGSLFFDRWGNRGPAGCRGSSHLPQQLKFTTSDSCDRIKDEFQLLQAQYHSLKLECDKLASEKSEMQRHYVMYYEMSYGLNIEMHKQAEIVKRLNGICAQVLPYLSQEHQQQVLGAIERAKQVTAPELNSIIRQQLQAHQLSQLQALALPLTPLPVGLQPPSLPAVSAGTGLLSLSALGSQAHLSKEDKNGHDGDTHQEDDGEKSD
B3: Hepatocyte nuclear factor 4-alpha (Homo sapiens), P41235-3 (parent)
chain: MRLSKTLVDMDMADYSAALDPAYTTLEFENVQVLTMGNDTSPSEGTNLNAPNSLGVSALCAICGDRATGKHYGASSCDGCKGFFRRSVRKNHMYSCRFSRQCVVDKDKRNQCRYCRLKKCFRAGMKKEAVQNERDRISTRRSSYEDSSLPSINALLQAEVLSRQITSPVSGINGDIRAKKIASIADVCESMKEQLLVLVEWAKYIPAFCELPLDDQVALLRAHAGEHLLLGATKRSMVFKDVLLLGNDYIVPRHCPELAEMSRVSIRILDELVLPFQELQIDDNEYAYLKAIIFFDPDAKGLSDPGKIKRLRSQVQVSLEDYINDRQYDSRGRFGELLLLLPTLQSITWQMIEQIQFIKLFGMAKIDNLLQEMLLGGPCQAQEGRGWSGDSPGDRPHTVSSPLSSLASPLCRFGQVA
B4: Myelin proteolipid protein (Homo sapiens), P60201-2 (parent)
chain: MGLLECCARCLVGAPFASLVATGLCFFGVALFCGCGHEALTGTEKLIETYFSKNYQDYEYLINVIHAFQYVIYGTASFFFLYGALLLAEGFYTTGAVRQIFGDYKTTICGKGLSATFVGITYALTVVWLLVFACSAVPVYIYFNTWTTCQSIAFPSKTSASIGSLCADARMYGVLPWNAFPGKVCGSNLLSICKTAEFQMTFHLFIAAFVGAAATLVSLLTFMIAATYNFAVLKLMGRGTKF
partner: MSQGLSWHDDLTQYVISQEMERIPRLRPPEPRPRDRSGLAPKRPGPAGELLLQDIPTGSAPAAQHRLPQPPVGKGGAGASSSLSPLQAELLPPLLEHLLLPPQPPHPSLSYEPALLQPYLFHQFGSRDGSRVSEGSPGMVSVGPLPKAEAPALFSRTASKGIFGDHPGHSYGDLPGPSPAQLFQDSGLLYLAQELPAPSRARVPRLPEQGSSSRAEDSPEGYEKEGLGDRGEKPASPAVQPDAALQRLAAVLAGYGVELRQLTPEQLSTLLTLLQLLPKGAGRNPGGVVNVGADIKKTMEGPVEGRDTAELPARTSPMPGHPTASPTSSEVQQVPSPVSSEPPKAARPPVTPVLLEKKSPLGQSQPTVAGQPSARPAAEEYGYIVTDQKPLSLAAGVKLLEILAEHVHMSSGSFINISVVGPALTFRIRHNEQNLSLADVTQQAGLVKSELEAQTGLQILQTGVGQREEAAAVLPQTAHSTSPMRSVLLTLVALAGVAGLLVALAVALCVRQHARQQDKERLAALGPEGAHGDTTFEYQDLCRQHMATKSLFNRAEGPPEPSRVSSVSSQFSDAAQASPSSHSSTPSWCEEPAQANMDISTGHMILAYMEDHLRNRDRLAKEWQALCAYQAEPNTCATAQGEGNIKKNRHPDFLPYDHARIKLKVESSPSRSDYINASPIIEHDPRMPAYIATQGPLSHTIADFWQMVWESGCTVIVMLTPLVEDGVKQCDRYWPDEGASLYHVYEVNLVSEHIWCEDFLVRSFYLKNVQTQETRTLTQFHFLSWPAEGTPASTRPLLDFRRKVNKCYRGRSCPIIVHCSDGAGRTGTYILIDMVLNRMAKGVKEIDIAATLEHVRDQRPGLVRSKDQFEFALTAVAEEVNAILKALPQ
B5: Phospholamban (Homo sapiens), P26678 (parent)
chain: MEKVQYLTRSAIRRASTIEMPQQARQKLQNLFINFCLILICLLLICIIVMLL
B6: Sialidase-2 (Homo sapiens), Q9Y3R4 (parent)
chain: MASLPVLQKESVFQSGAHAYRIPALLYLPGQQSLLAFAEQRASKKDEHAELIVLRRGDYDAPTHQVQWQAQEVVAQARLDGHRSMNPCPLYDAQTGTLFLFFIAIPGQVTEQQQLQTRANVTRLCQVTSTDHGRTWSSPRDLTDAAIGPAYREWSTFAVGPGHCLQLHDRARSLVVPAYAYRKLHPIQRPIPSAFCFLSHDHGRTWARGHFVAQDTLECQVAEVETGEQRVVTLNARSHLRARVQAQSTNDGLDFQESQLVKKLVEPPPQGCQGSVISFPSPRSGPGSPAQWLLYTHPTHSWQRADLGAYLNPRPPAPEAWSEPVLLAKGSCAYSDLQSMGTGPDGSPLFGCLYEANDYEEIVFLMFTLKQAFPAEYLPQ
B7: EGF-containing fibulin-like extracellular matrix protein 1 (Homo sapiens), Q12805 (parent)
chain: MLKALFLTMLTLALVKSQDTEETITYTQCTDGYEWDPVRQQCKDIDECDIVPDACKGGMKCVNHYGGYLCLPKTAQIIVNNEQPQQETQPAEGTSGATTGVVAASSMATSGVLPGGGFVASAAAVAGPEMQTGRNNFVIRRNPADPQRIPSNPSHRIQCAAGYEQSEHNVCQDIDECTAGTHNCRADQVCINLRGSFACQCPPGYQKRGEQCVDIDECTIPPYCHQRCVNTPGSFYCQCSPGFQLAANNYTCVDINECDASNQCAQQCYNILGSFICQCNQGYELSSDRLNCEDIDECRTSSYLCQYQCVNEPGKFSCMCPQGYQVVRSRTCQDINECETTNECREDEMCWNYHGGFRCYPRNPCQDPYILTPENRCVCPVSNAMCRELPQSIVYKYMSIRSDRSVPSDIFQIQATTIYANTINTFRIKSGNENGEFYLRQTSPVSAMLVLVKSLSGPREHIVDLEMLTVSSIGTFRTSSVLRLTIIVGPFSF
B8: Fibulin-5 (Homo sapiens), Q9UBX5 (parent)
chain: MPGIKRILTVTILALCLPSPGNAQAQCTNGFDLDRQSGQCLDIDECRTIPEACRGDMMCVNQNGGYLCIPRTNPVYRGPYSNPYSTPYSGPYPAAAPPLSAPNYPTISRPLICRFGYQMDESNQCVDVDECATDSHQCNPTQICINTEGGYTCSCTDGYWLLEGQCLDIDECRYGYCQQLCANVPGSYSCTCNPGFTLNEDGRSCQDVNECATENPCVQTCVNTYGSFICRCDPGYELEEDGVHCSDMDECSFSEFLCQHECVNQPGTYFCSCPPGYILLDDNRSCQDINECEHRNHTCNLQQTCYNLQGGFKCIDPIRCEEPYLRISDNRCMCPAENPGCRDQPFTILYRDMDVVSGRSVPADIFQMQATTRYPGAYYIFQIKSGNEGREFYMRQTGPISATLVMTRPIKGPREIQLDLEMITVNTVINFRGSSVIRLRIYVSQYPF
partner: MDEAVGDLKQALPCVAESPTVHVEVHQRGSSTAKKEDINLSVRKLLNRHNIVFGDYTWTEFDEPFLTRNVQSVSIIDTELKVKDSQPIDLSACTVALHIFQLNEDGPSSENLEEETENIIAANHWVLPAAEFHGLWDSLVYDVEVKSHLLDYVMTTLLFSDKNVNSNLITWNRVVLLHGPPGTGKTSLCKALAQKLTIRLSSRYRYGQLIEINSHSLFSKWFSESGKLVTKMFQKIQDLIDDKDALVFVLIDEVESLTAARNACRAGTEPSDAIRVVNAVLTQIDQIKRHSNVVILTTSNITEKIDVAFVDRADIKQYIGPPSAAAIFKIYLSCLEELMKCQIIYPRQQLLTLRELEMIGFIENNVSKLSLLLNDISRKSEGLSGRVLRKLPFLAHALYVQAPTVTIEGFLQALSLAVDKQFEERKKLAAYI
B9: Phytanoyl-CoA dioxygenase, peroxisomal (Homo sapiens), O14832 (parent)
chain: MEQLRAAARLQIVLGHLGRPSAGAVVAHPTSGTISSASFHPQQFQYTLDNNVLTLEQRKFYEENGFLVIKNLVPDADIQRFRNEFEKICRKEVKPLGLTVMRDVTISKSEYAPSEKMITKVQDFQEDKELFRYCTLPEILKYVECFTGPNIMAMHTMLINKPPDSGKKTSRHPLHQDLHYFPFRPSDLIVCAWTAMEHISRNNGCLVVLPGTHKGSLKPHDYPKWEGGVNKMFHGIQDYEENKARVHLVMEKGDTVFFHPLLIHGSGQNKTQGFRKAISCHFASADCHYIDVKGTSQENIEKEVVGIAHKFFGAENSVNLKDIWMFRARLVKGERTNL

Variants of: B1
Conditions: with kr107_human KRTAP10-7, P60409

effect of a mutation on the interaction | Variant
with no effect | R288Q
with no effect | D216H

Variants of: B2
Conditions: with TLE5, Q08117-2

effect of a mutation on the interaction | Variant
with no effect | R110W
with no effect | R112C
with no effect | D227Y

Variants of: B3
Conditions: with plpp2_human PLPP2, O43688
plpp2_human PLPP2, O43688, sequence (O43688 whole entry, looked up): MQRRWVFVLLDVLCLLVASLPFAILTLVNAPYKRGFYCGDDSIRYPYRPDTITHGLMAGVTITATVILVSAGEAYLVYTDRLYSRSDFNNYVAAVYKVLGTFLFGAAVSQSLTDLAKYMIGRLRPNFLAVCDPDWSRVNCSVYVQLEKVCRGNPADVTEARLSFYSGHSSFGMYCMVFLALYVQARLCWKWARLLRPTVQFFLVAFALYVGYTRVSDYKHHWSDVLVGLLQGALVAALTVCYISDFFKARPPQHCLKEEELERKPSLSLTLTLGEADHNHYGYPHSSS

effect of a mutation on the interaction | Variant
disrupting interaction strength | C102W

Variants of: B3
Conditions: with if1ay_human EIF1AY

effect of a mutation on the interaction | Variant
disrupting interaction strength | C102W

Variants of: B3
Conditions: with dmd_human DMD

effect of a mutation on the interaction | Variant
disrupting interaction strength | C102W

Variants of: B4
Conditions: with PTPRN

effect of a mutation on the interaction | Variant
disrupting interaction strength | W128L
disrupting interaction strength | P15L
disrupting interaction strength | A213E
disrupting interaction strength | L87P

Variants of: B5
Conditions: with BCL2L13, Q9BXK5
BCL2L13, Q9BXK5, sequence (Q9BXK5 whole entry): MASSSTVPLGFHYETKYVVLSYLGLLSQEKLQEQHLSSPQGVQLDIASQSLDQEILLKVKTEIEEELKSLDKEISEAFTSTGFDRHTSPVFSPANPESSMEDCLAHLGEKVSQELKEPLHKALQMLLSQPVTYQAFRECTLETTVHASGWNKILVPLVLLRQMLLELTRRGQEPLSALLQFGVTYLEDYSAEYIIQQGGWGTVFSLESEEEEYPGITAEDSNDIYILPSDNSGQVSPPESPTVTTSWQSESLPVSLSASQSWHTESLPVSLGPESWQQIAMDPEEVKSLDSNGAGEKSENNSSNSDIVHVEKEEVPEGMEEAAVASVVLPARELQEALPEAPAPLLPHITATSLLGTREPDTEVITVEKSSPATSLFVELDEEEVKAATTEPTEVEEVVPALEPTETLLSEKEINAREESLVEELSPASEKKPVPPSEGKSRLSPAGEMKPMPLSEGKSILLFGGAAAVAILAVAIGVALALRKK

effect of a mutation on the interaction | Variant
with no effect | R9C

Variants of: B5
Conditions: with eda_human EDA

effect of a mutation on the interaction | Variant
with no effect | R9C

Variants of: B6
Conditions: with nt2na_human NOTCH2NLA

effect of a mutation on the interaction | Variant
with no effect | R41Q

Variants of: B7
Conditions: with sgta_human SGTA

effect of a mutation on the interaction | Variant
with no effect | R345W

Variants of: B7
Conditions: with meox2_human MEOX2, P50222
meox2_human MEOX2, P50222, sequence (P50222 whole entry): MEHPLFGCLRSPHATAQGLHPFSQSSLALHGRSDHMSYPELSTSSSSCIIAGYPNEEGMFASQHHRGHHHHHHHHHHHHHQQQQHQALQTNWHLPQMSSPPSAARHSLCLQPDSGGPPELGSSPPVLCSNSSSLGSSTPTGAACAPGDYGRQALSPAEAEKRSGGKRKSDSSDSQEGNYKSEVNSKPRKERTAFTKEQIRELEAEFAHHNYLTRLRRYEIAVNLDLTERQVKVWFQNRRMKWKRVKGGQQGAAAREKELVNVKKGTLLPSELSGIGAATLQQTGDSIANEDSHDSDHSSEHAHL

effect of a mutation on the interaction | Variant
with no effect | R345W

Variants of: B8
Conditions: with pch2_human TRIP13, Q15645

effect of a mutation on the interaction | Variant
disrupting interaction strength | V60L

Variants of: B9
Conditions: with fam9b_human FAM9B

effect of a mutation on the interaction | Variant
disrupting interaction strength | N83Y
with no effect | P29S

Source: IntAct's records for PubMed 25910212
